Experimental data reported in IntAct's records for PubMed 20078863.

What was measured:
Thra, P63059-2 [1] = biological target: Thra, P63059-2
Thra, P63059-2 [2] = biological target: Thra, P63059-2; remark: listed apart in the source

Chain of Thra, P63059-2 (P63059 other isoform, or with tags, fused parts or gaps): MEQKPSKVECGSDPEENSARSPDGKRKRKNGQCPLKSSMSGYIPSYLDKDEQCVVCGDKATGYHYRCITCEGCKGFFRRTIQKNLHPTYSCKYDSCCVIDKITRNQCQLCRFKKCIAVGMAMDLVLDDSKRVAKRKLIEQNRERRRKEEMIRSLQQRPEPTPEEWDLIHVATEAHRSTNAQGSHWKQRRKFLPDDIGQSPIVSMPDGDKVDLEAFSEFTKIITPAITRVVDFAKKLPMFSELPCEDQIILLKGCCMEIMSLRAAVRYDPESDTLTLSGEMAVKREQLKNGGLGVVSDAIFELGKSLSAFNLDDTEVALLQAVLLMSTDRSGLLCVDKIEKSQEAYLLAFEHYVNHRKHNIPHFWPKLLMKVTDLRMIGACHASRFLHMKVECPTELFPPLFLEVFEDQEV
Chain of Transforming acidic coiled-coil-containing protein 1 (Homo sapiens), O75410-9 L580A;I581A (O75410 other isoform, or with tags, fused parts or gaps L580A;I581A): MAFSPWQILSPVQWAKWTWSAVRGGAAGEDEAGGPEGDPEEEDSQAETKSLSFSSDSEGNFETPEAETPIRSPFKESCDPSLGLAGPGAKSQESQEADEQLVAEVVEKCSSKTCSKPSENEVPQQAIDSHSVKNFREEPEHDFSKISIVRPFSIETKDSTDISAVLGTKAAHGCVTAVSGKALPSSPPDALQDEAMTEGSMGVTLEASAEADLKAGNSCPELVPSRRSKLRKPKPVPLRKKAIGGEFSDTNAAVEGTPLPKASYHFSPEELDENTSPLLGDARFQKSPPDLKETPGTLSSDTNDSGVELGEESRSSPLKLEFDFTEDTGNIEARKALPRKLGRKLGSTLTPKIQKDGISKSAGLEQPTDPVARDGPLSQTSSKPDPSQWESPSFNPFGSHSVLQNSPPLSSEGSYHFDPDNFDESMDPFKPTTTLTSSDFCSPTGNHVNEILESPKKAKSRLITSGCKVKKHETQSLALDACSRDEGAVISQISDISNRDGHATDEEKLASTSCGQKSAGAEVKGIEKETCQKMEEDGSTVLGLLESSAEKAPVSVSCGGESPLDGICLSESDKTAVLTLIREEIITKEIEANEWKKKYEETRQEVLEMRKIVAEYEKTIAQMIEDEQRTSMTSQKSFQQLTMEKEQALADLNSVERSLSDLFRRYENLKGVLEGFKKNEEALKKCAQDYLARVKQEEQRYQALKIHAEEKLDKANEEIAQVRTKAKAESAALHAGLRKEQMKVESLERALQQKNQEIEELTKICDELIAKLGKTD
Chain of Thra, P63059-1 (P63059 whole entry): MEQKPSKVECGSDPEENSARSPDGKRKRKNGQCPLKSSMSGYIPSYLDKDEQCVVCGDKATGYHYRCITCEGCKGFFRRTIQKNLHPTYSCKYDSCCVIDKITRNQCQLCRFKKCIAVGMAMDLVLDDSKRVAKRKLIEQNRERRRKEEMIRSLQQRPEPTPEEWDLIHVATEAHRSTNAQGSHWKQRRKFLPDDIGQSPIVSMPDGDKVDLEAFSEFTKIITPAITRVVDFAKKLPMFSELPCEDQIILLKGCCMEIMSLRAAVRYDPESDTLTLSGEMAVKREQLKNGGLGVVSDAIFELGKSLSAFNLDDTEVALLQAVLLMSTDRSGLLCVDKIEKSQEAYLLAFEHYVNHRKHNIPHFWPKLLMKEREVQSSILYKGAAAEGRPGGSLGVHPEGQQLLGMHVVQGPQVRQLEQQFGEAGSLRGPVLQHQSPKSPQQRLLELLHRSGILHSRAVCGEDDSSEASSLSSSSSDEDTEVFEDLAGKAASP
Chain of Transforming acidic coiled-coil-containing protein 1 (Homo sapiens), O75410-10 L170A;I171A (O75410 other isoform, or with tags, fused parts or gaps L170A;I171A): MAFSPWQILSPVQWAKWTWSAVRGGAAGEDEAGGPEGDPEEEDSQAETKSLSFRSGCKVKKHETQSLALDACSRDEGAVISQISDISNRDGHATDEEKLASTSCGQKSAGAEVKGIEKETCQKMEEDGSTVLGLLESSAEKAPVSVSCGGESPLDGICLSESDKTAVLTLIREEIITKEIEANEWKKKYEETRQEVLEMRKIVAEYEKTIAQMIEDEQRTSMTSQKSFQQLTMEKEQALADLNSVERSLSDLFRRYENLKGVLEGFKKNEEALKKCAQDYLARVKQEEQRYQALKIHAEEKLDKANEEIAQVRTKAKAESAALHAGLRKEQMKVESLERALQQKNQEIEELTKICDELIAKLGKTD

effect of a mutation on the interaction (Thra, P63059-2 [1]) | effect of a mutation on the interaction (Thra, P63059-1) | effect of a mutation on the interaction (Thra, P63059-2 [2]) | Substance
decreasing interaction strength | disrupting interaction strength |  | Transforming acidic coiled-coil-containing protein 1 (Homo sapiens), O75410-9 L580A;I581A
 |  | disrupting interaction strength | Transforming acidic coiled-coil-containing protein 1 (Homo sapiens), O75410-10 L170A;I171A
